The results in this text go back to US20230257454A1 (STAIDSON BEIJING BIOPHARMACEUTICALS, published 2023).

To fix the notation:
B1: Cab17 scFv (scFv, V domains shown)
VH: VVQLVESGGGLVLPGGSLKVSCAASGFIFSDYYIQWVRQAPGKGPEWVGLIRNKAVGETVQYAASLKGRFTISRDDSKSIAYLQMTSLKTEDTAMYYCVSRAGPPGLTWGQGVLVTVSS
VL: DIVMIQNPLSLSVTPGEPASISCRSSQRLLASDGYTYVDWYLQKPGQSPQILIYGGSNRASGVPDRFSGSGSGTDFTLKISKVEAEDVGVYYCMQHKALPPTFGQGTKLEIK
B2: Cab39 (reformatted as human IgG1) (antibody, V domains shown)
VH: EMQLVESGGGLVQPGGSLRLSCAASGFTFSDYYMQWVRQAPGKGPEWVGLIRNKAVGITTQYAASVKGRFTISRDDSKNSVYLQMNSLKTEDTAVYYCVSRAGPPGLSWGQGVLVTVSS
VL: DIVMTQSPLSLPVTPGEPASISCRSSQSLLASDGYNYIDWYLQKPGQSPQLLIYGGSNRASGVPDRFSGSGSGTDFTLKISRVEAEDVGVYFCLQHRALPPTFGQGTKLEIK
B3: Cab46 (reformatted as human IgG1) (antibody, V domains shown)
VH: EVQLVESGGGLVQPGGSLRLSCAASGFTFSDYYIQWVRQAPGKGPEWVGLIRNKAVGGTTTYAASVKGRFTISRDDSKNSAYLQMNSLKTEDTAVYFCVSRAGPPGLSWGQGVLVTVSS
VL: DIVMTQSPLSLPVTPGEPASISCRSSQSLLATDGYEYLDWYLQKPGQSPQLLIYGASNRASGVPDRFSGSGSGTDFTLKISRVEAEDVGVYYCLQHKALPPTFGQGTKLEIK
B4: Cab32 (reformatted as human IgG1) (antibody, V domains shown)
VH: EMQLVESGGGLVQPGGSLRLSCAASGFTFSDYYMQWVRQAPGKGPEWVGLIRNKAVGGTTQYAASVKGRFTISRDDSKNSVYLQMNSLKTEDTAVYYCVSRAGPPGLSWGQGVLVTVSS
VL: DIVMTQSPLSLPVTPGEPASISCRSSQSLLASDGYIYIDWYLQKPGQSPQLLIYGGSNRASGVPDRFSGSGSGTDFTLKISRVEAEDVGVYFCLQHRALPPTFGQGTKLEIK
B5: Cab18 scFv (scFv, V domains shown)
VH: VVQLVESGGGLVQPGGSLKVSCAASGFTFSDYYMQWVRQAPGKGPEWVGLIRNKAIGETTQYAASVKGRFTISRDDSKSIVYLQMSSLKTEDTAVYYCVSRAGPPGLSWGQGVLVTVSS
VL: DIVMTQNPLSLPVTPGEPASISCRSSQSLLDSNRYAYVDWYLQKPGQSPQILVYGGSNRASGVPDRFSGSGSGTDFTLKISKVEAEDVGIYYCMQHKVLPPTFGQGTKLEIK
B6: Cab41 (reformatted as human IgG1) (antibody, V domains shown)
VH: EMQLVESGGGLVQPGGSLRLSCAASGFTFSDYYMQWVRQAPGKGPEWVGLIRNKAVGRTTQYAASVKGRFTISRDDSKNSVYLQMNSLKTEDTAVYYCVSRAGPPGLSWGQGVLVTVSS
VL: DIVMTQSPLSLPVTPGEPASISCRSSQSLLASDGYNYIDWYLQKPGQSPQLLIYGGSNRASGVPDRFSGSGSGTDFTLKISRVEAEDVGVYFCLQHRALPPTFGQGTKLEIK
B7: Cab40 (reformatted as human IgG1) (antibody, V domains shown)
VH: EMQLVESGGGLVQPGGSLRLSCAASGFTFSDYYMQWVRQAPGKGPEWVGLIRNKAVGQTTQYAASVKGRFTISRDDSKNSVYLQMNSLKTEDTAVYYCVSRAGPPGLSWGQGVLVTVSS
VL: DIVMTQSPLSLPVTPGEPASISCRSSQSLLASDGYNYIDWYLQKPGQSPQLLIYGGSNRASGVPDRFSGSGSGTDFTLKISRVEAEDVGVYFCLQHRALPPTFGQGTKLEIK
B8: Cab34 (reformatted as human IgG1) (antibody, V domains shown)
VH: EMQLVESGGGLVQPGGSLRLSCAASGFTFSDYYMQWVRQAPGKGPEWVGLIRNKAVGGTTEYAASVKGRFTISRDDSKNSVYLQMNSLKTEDTAVYYCVSRAGPPGLSWGQGVLVTVSS
VL: DIVMTQSPLSLPVTPGEPASISCRSSQSLLASDGYNYIDWYLQKPGQSPQLLIYGGSNRASGVPDRFSGSGSGTDFTLKISRVEAEDVGVYFCLQHRALPPTFGQGTKLEIK
B9: Cab33 (reformatted as human IgG1) (antibody, V domains shown)
VH: EMQLVESGGGLVQPGGSLRLSCAASGFTFSDYYMQWVRQAPGKGPEWVGLIRNKAVGGTTQYAASVKGRFTISRDDSKNSVYLQMNSLKTEDTAVYYCVSRAGPPGLSWGQGVLVTVSS
VL: DIVMTQSPLSLPVTPGEPASISCRSSQSLLASDGYNYIDWYLQKPGQSPQLLIYGGSNRASGVPDRFSGSGSGTDFTLKISRVEAEDVGVYFCLQHKALPPTFGQGTKLEIK
B10: Cab37 (reformatted as human IgG1) (antibody, V domains shown)
VH: EMQLVESGGGLVQPGGSLRLSCAASGFTFSDYYMQWVRQAPGKGPEWVGLIRNKAVGFTTQYAASVKGRFTISRDDSKNSVYLQMNSLKTEDTAVYYCVSRAGPPGLSWGQGVLVTVSS
VL: DIVMTQSPLSLPVTPGEPASISCRSSQSLLASDGYNYIDWYLQKPGQSPQLLIYGGSNRASGVPDRFSGSGSGTDFTLKISRVEAEDVGVYFCLQHRALPPTFGQGTKLEIK
B11: Cab36 (reformatted as human IgG1) (antibody, V domains shown)
VH: EMQLVESGGGLVQPGGSLRLSCAASGFTFSDYYMQWVRQAPGKGPEWVGLIRNKAVGETTEYAASVKGRFTISRDDSKNSVYLQMNSLKTEDTAVYYCVSRAGPPGLSWGQGVLVTVSS
VL: DIVMTQSPLSLPVTPGEPASISCRSSQSLLASDGYNYIDWYLQKPGQSPQLLIYGGSNRASGVPDRFSGSGSGTDFTLKISRVEAEDVGVYFCLQHRALPPTFGQGTKLEIK
B12: Cab19 scFv (scFv, V domains shown)
VH: EVQLVESGGGLVQPGGSLKVSCVASGFTFSDYYIQWVRQAPGKGPEWVGLIRNKAVGGTTSYAASVKGRFTISRDDSKSVAYLQMTSLKTEDTAVYFCVSRAGPPGLSWGQGVLVTVSS
VL: DIVMIQNPLSLPVTPGEPASISCRSSQSLLHSDGYTYLDWYQQKPGQAPQLLIYGGSNRASGVPDRFSGSGSATDFTLKISKMEAEDVGVYYCMQHKALPPTFGGGTKVEIK
B13: Cab01 scFv (scFv, V domains shown)
VH: EVQLVESGGGMVQPGGSLRVSCAASGFTFTKYYMQWVRQAPGKGPEWVGLIRNKANGGTAEYVASVKDRFTISRDDSKSIAYLQMSSLKTEDTAVYYCVMRDNGYHWGQGVLVTVSS
VL: DIVLTQTPLSLPVTPGEPASISCRSSQRLLHSDGYTYLDWYLQKPGQSPQLLIYGGSNRASGVPDRFSGSGSGTDFTLKISKVEAEDVGVYYCMQHKALPLTFGGGTKVEIK
B14: Cab13 scFv (scFv, V domains shown)
VH: VVQLVESGGGLVQPGGSLKVSCAASGFTFSDYYMQWVRQAPGKGPEWVGLIRNKAIGGTTQYAASVKGRFTISRDDSKSIVYLQMSSLKTEDTAVYYCVSRAGPPGLSWGQGVLVTISS
VL: DIVMIQNPLSLPVTPGEPASISCRSSQSLLASDGYNYMDWYLQKPGQSPKVLIYGGSNRASGVPDRFSGSGSGTDFTLKITKVEAEDVGIYYCMQHKVLPPTFGQGTKLEIK
B15: Cab21 scFv (scFv, V domains shown)
VH: EVQLVQSGGGLVQPGGSLKVSCAASGFIFSNYYIQWVRQAPGKGPEWVGLIRNKAIGETTEFAASVKGRFTISRDDSKSIVYLQMTRLKTEDTAVYYCAGRLGPPGLTWGQGVLVTISS
VL: DAVMTQTPLSLPVTPGEPASISCRSSQSLLASDGYNYIDWYLQRPGQSPKVLIYGGSNRASGVPDRFSGSGSGTYFTLKISKVEAEDVGFYFCLQHRALPPTFGQGTKLEIK

One experiment addresses T1, human C5a (source not stated) (human, UniProt P01031 678-751).
T1 sequence: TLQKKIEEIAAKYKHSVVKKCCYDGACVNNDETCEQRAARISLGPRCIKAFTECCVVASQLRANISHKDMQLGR
The experiment in a line: cell-based or functional assay.
B1 displayed an ROS IC50 of 1.87 nM.

In turn, B2 gave an ROS IC50 of 0.91 nM.

The molecule B3 had an ROS IC50 of 0.66 nM.

With B4, the ROS IC50 came out at 1.76 nM.

As for B5, the ROS IC50 is 1.36 nM.

Molecule B6 returned an ROS IC50 of 0.7 nM.

Consider B7, for which the ROS IC50 was 0.7 nM.

For B8, the ROS IC50 is 1.61 nM.

With B9, the ROS IC50 is 1.7 nM.

In turn, B10 showed an ROS IC50 of 0.92 nM.

B11 registered an ROS IC50 of 1.41 nM.

For B12, the ROS IC50 is 1.32 nM.

The next experiment addresses T1, human C5a (source not stated). The experiment in a line: cell-based or functional assay. The source holds these as a separate data set.
As for B13, the “ROS IC50” value worked out at 1.51 nM.

As for B14, the “ROS IC50” value amounted to 1.08 nM.

Consider B15, for which the “ROS IC50” value came to 0.84 nM.
